The values below come from the Immune Epitope Database (IEDB).

Bounds are passed on as bounds.

In general, Kd refers to a measure of binding affinity in units of concentration.

Holding throughout (experiment): IEDB peptide-MHC binding, purified MHC/competitive/radioactivity; filed as Kd, often an IC50 or EC50 that approximates it; ≥ and ≤ were set here for values at or beyond the usual limits of such assays
Experiment [1] concerns the target HLA-A*02:06.
Experiment [2] concerns the target HLA-A*03:01.
The target of experiment [3] is HLA-A*11:01.
Experiment [4] deals with HLA-A*33:01.
The target in experiment [5] is HLA-A*31:01.
Experiment [6] addresses HLA-A*68:01.
Where [7] appears, read: source organism: Dengue virus 4 Philippines/H241/1956.
Setting [8] is: source organism: Vaccinia virus WR.
The mark [9] stands for this setting: source organism: Mammarenavirus guanaritoense.
Setting [10] is: source organism: Mammarenavirus brazilense.
Where [11] appears, read: source organism: Triticum aestivum.
[12] abbreviates: source organism: SARS coronavirus Tor2.

Consider DLNSFEQLCI, for which the Kd in experiment [1] (source organism: Homo sapiens) was no less than 128 µM.
With GQIHLAIMAV, in experiment [1] (setting [7]), the Kd came out at 0.00133 µM.
On to ISAEKTPIR, for which the Kd in experiment [2] (setting [8]) is no less than 78 µM; in experiment [3] (setting [8]), 6.02 µM; in experiment [4] (setting [8]), no less than 77.7 µM; in experiment [5] (setting [8]), no less than 41.7 µM; in experiment [6] (setting [8]) it was 0.275 µM.
Turning to ITSTKTIEY, the Kd in experiment [2] (setting [8]) was 0.122 µM; in experiment [3] (setting [8]), 0.434 µM; in experiment [4] (setting [8]), no less than 20.9 µM; in experiment [5] (setting [8]), 15.1 µM; in experiment [6] (setting [8]), 1.73 µM.
For IVTMMKYCSY, the Kd came out at 0.127 µM in experiment [2] (setting [8]); 0.0268 µM in experiment [3] (setting [8]); 0.235 µM in experiment [4] (setting [8]); 0.0316 µM in experiment [5] (setting [8]); 0.0415 µM in experiment [6] (setting [8]).
With KCSDHYLCLR, the Kd in experiment [2] (setting [9]) is 4.76 µM; in experiment [3] (setting [9]), no less than 44.8 µM; in experiment [4] (setting [9]) it was 5.78 µM; in experiment [5] (setting [9]), 0.14 µM; in experiment [6] (setting [9]), no less than 70.1 µM.
Regarding KFAEESYTY, the Kd in experiment [2] (setting [8]) is no less than 78 µM; in experiment [3] (setting [8]), 16.5 µM; in experiment [4] (setting [8]), no less than 77.7 µM; in experiment [5] (setting [8]), 13.5 µM; in experiment [6] (setting [8]), no less than 38.7 µM.
Taken in the same sequence, the figures for KLILAEYIR were 8.07 µM, 15.2 µM, 9.56 µM, 0.0681 µM and 2.09 µM.
Taken in the same sequence, the figures for KSIENKHQR were 12.6 µM, 0.0294 µM, 1.08 µM, 0.00155 µM and 0.1 µM.
As to KVIGLYGNGV, the dissociation constant Kd in experiment [1] (setting [7]) amounted to 0.0123 µM.
For LIKTILASY, the Kd in experiment [2] (setting [8]) amounted to 0.568 µM; in experiment [3] (setting [8]), 7.87 µM; in experiment [4] (setting [8]), 18.7 µM; in experiment [5] (setting [8]) it was 7.44 µM; in experiment [6] (setting [8]), 10.3 µM.
In the case of LLVKMINHLK, the Kd was 0.258 µM in experiment [2] (setting [8]); 0.4 µM in experiment [3] (setting [8]); no less than 67.5 µM in experiment [4] (setting [8]); 5.42 µM in experiment [5] (setting [8]); 0.776 µM in experiment [6] (setting [8]).
Consider LNTPYCNYTK, for which the Kd in experiment [2] (setting [10]) is 15.3 µM; in experiment [3] (setting [10]), 10.8 µM; in experiment [4] (setting [10]) it was 0.032 µM; in experiment [5] (setting [10]), 6.41 µM; in experiment [6] (setting [10]) it was 0.695 µM.
Turning to LQQHNIVHGK, the Kd in experiment [2] (setting [11]) is 1.16 µM; in experiment [3] (setting [11]) it was 0.1 µM; in experiment [4] (setting [11]), no less than 70 µM; in experiment [5] (setting [11]), 2.42 µM; in experiment [6] (setting [11]) it was no less than 47.9 µM.
In the case of LTSMKYFVK, the Kd in experiment [2] (setting [12]) is 0.223 µM; in experiment [3] (setting [12]) it was 0.0199 µM; in experiment [4] (setting [12]), 0.939 µM; in experiment [5] (setting [12]) it was 0.0749 µM; in experiment [6] (setting [12]) it was 0.234 µM.
LVYIFEPEK: the Kd in experiment [2] (setting [8]) is 0.382 µM; in experiment [3] (setting [8]), 0.0249 µM; in experiment [4] (setting [8]) it was no less than 77.7 µM; in experiment [5] (setting [8]) it was no less than 21.1 µM; in experiment [6] (setting [8]) it was 0.13 µM.
Taken in the same sequence, the figures for NIQKITVFNK were 0.0474 µM, 0.0058 µM, 1.2 µM, 0.00389 µM and 0.0305 µM.
As for NIVTDLENR, the Kd worked out at 9.09 µM in experiment [2] (setting [8]); 8.74 µM in experiment [3] (setting [8]); 0.832 µM in experiment [4] (setting [8]); 1.74 µM in experiment [5] (setting [8]); 0.0219 µM in experiment [6] (setting [8]).
The corresponding values for PAGRPNYVK are no less than 31.9 µM, 0.21 µM, 7.21 µM, 0.012 µM and 15.9 µM.
In the case of PVSDLYTSMR, the dissociation constant (Kd) in experiment [2] (setting [8]) was found to be 6.26 µM; in experiment [3] (setting [8]), 0.638 µM; in experiment [4] (setting [8]) it was 0.346 µM; in experiment [5] (setting [8]), 0.539 µM; in experiment [6] (setting [8]), 0.0013 µM.
Turning to QIGEYTFEK, the Kd in experiment [2] (setting [12]) is 0.0487 µM; in experiment [3] (setting [12]), 0.00993 µM; in experiment [4] (setting [12]), no less than 22.2 µM; in experiment [5] (setting [12]), 1.92 µM; in experiment [6] (setting [12]), 0.589 µM.
Taken in the same sequence, the figures for QTMLFTMLRK were 0.0111 µM, 0.00457 µM, 0.268 µM, 0.164 µM and 0.0199 µM.
Consider RAVKFAEESY, for which the Kd in experiment [2] (setting [8]) is 14.8 µM; in experiment [3] (setting [8]) it was 14.5 µM; in experiment [4] (setting [8]), no less than 70 µM; in experiment [5] (setting [8]), no less than 70 µM; in experiment [6] (setting [8]), 7.29 µM.
Turning to RSAFNDDGIY, the Kd in experiment [2] (setting [8]) was no less than 70.1 µM; in experiment [3] (setting [8]) it was no less than 66.4 µM; in experiment [4] (setting [8]), no less than 70 µM; in experiment [5] (setting [8]), no less than 70 µM; in experiment [6] (setting [8]) it was no less than 31.8 µM.
